Results published in patent US20090192100, “NOVEL USE OF SPIEGELMERS” (published 2009).

Molecular target: T1, HMGA1b-His6 (Homo sapiens, S2G)
T1 chain: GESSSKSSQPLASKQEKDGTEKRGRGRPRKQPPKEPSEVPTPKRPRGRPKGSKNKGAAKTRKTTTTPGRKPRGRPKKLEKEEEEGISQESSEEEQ
Assay: streptavidin plate assay with nickel-HRP detection; poly(dGdC) competitor
Settings: tags: C-terminal L-GSLNS-His6 (vector pHO2d), expressed in E. coli BL21; label: 5'-biotin on 34 nt strand
Method: The detection of HMGA1b-His6 bound to DNA is carried out with horseradish peroxidase modified with nickel (Nickel-HRP), which transforms a fluorogenic substrate. In this assay the spiegelmer displaces the recombinant HMGA1b from its natural binding partner. On account of the 1:1:1 stoichiometry of spiegelmer/rHMGA1b/dsDNA AT Hook, a direct prediction can be made regarding the affinity of the spiegelmers for HMGA1b. The principle of the assay is illustrated in FIG. 5.
To carry out this test spiegelmers in various concentrations and HMGA1b-His6 (0.36 μg/ml; ca. 30 nM) in a total volume of 100 μl are incubated for 10 minutes in a tapered floor plate at room temperature while shaking. The incubation solution also contains: 25 mM Tris/HCl, pH 7.0 (Ambion, Austin, Tex., USA), 140 mM KCl (Ambion, Austin, Tex., USA), 12 mM NaCl (Ambion, Austin, Tex., USA), 0.8 mM MgCl2 (Ambion, Austin, Tex., USA), 0.25 mg/ml BSA (Roche, Mannheim, Germany), 1 mM DTT (Invitrogen, Karlsruhe, Germany), 18-20 μg/ml poly(dGdC) (Sigma, Deisenhofen, Germany)), 0.05% Tween 20 (Roche, Mannheim, Germany). […]
100 μl of the fluorogenic HRP substrate (QuantaBlue, Pierce, Bonn, Germany) are then added to each well and the fluorescence is measured after 15 mins (ex: 340/em: 405 nm).

B1: dsDNA AT hook (dsDNA)
DNA 1: TCGAAAAAAGCAAAAAAAAAAAAAAAAAACTGGC
DNA 2: GCCAGTTTTTTTTTTTTTTTTTTGCTTTTTT
- binding result: binds
